# Measurements taken from the supplement of paper PMC10567573.
# B1: FBF1 (parent)
# chain: YQRPQDSEDMWGDEDFTFGAYQPT
# Variants of: B1
# Assay: protein stability index of a GFP-peptide fusion (GPS, HEK-293T) (PSI 1-6); higher = more stable
# Details: c terminus: a fixed tail appended
# 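Further: lentivirally expressed fusions sorted by FACS into six bins by GFP to DsRed ratio, PSI derived from sequencing read proportions per bin multiplied by bin number.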
row,Variant,protein stability index
1,YQRPLDSEDMWGDEDFTFGAYQPT,2.09
2,YQRPKDSEDMWGDEDFTFGAYQPT,2.01
3,YQRPRDSEDMWGDEDFTFGAYQPT,2.16
4,YQRPHDSEDMWGDEDFTFGAYQPT,2.44
5,YQRPCDSEDMWGDEDFTFGAYQPT,2.26
6,YQRPADSEDMWGDEDFTFGAYQPT,2.49
7,YQRPTDSEDMWGDEDFTFGAYQPT,3.18
8,YQRPGDSEDMWGDEDFTFGAYQPT,2.99
9,YQRPPDSEDMWGDEDFTFGAYQPT,2.52
10,YQRPYDSEDMWGDEDFTFGAYQPT,2.57
11,YQRPIDSEDMWGDEDFTFGAYQPT,2.26
12,YQRPSDSEDMWGDEDFTFGAYQPT,2.98
13,YQRPFDSEDMWGDEDFTFGAYQPT,2.64
14,YQRPVDSEDMWGDEDFTFGAYQPT,2.56
15,YQRPMDSEDMWGDEDFTFGAYQPT,2.44
16,YQRPDDSEDMWGDEDFTFGAYQPT,3.79
17,YQRPWDSEDMWGDEDFTFGAYQPT,2.03
18,YQRPEDSEDMWGDEDFTFGAYQPT,3.76
19,YQRPNDSEDMWGDEDFTFGAYQPT,3.03
20,YQRPQFSEDMWGDEDFTFGAYQPT,1.68
21,YQRPQCSEDMWGDEDFTFGAYQPT,2.06
22,YQRPQQSEDMWGDEDFTFGAYQPT,2.26
23,YQRPQVSEDMWGDEDFTFGAYQPT,2.12
24,YQRPQASEDMWGDEDFTFGAYQPT,2.05

row,Variant,protein stability index
1,YQRPQSSEDMWGDEDFTFGAYQPT,2.24
2,YQRPQESEDMWGDEDFTFGAYQPT,2.59
3,YQRPQLSEDMWGDEDFTFGAYQPT,2.17
4,YQRPQTSEDMWGDEDFTFGAYQPT,2.53
5,YQRPQGSEDMWGDEDFTFGAYQPT,1.77
6,YQRPQYSEDMWGDEDFTFGAYQPT,2.06
7,YQRPQISEDMWGDEDFTFGAYQPT,1.98
8,YQRPQWSEDMWGDEDFTFGAYQPT,1.64
9,YQRPQNSEDMWGDEDFTFGAYQPT,2.25
10,YQRPQPSEDMWGDEDFTFGAYQPT,2.3
11,YQRPQKSEDMWGDEDFTFGAYQPT,1.94
12,YQRPQRSEDMWGDEDFTFGAYQPT,2.04
13,YQRPQHSEDMWGDEDFTFGAYQPT,1.84
14,YQRPQMSEDMWGDEDFTFGAYQPT,2.32
15,YQRPQDSEVMWGDEDFTFGAYQPT,1.66
16,YQRPQDSEFMWGDEDFTFGAYQPT,1.92
17,YQRPQDSEKMWGDEDFTFGAYQPT,2.01
18,YQRPQDSEEMWGDEDFTFGAYQPT,3.21
19,YQRPQDSENMWGDEDFTFGAYQPT,2.48
20,YQRPQDSECMWGDEDFTFGAYQPT,1.55
21,YQRPQDSEYMWGDEDFTFGAYQPT,1.87
22,YQRPQDSEHMWGDEDFTFGAYQPT,2.03
23,YQRPQDSEQMWGDEDFTFGAYQPT,2.23
24,YQRPQDSEAMWGDEDFTFGAYQPT,2.17

row,Variant,protein stability index
1,YQRPQDSEIMWGDEDFTFGAYQPT,2.13
2,YQRPQDSESMWGDEDFTFGAYQPT,2.11
3,YQRPQDSERMWGDEDFTFGAYQPT,2.34
4,YQRPQDSEPMWGDEDFTFGAYQPT,2.02
5,YQRPQDSELMWGDEDFTFGAYQPT,1.44
6,YQRPQDSETMWGDEDFTFGAYQPT,2.59
7,YQRPQDSEGMWGDEDFTFGAYQPT,2.47
8,YQRPQDSEMMWGDEDFTFGAYQPT,1.55
9,YQRPQDSEWMWGDEDFTFGAYQPT,2.01
10,YQRAQDSEDMWGDEDFTFGAYQPT,2.45
11,YQRQQDSEDMWGDEDFTFGAYQPT,2.54
12,YQREQDSEDMWGDEDFTFGAYQPT,3.56
13,YQRYQDSEDMWGDEDFTFGAYQPT,3.04
14,YQRIQDSEDMWGDEDFTFGAYQPT,2.68
15,YQRHQDSEDMWGDEDFTFGAYQPT,2.97
16,YQRMQDSEDMWGDEDFTFGAYQPT,2.74
17,YQRVQDSEDMWGDEDFTFGAYQPT,2.49
18,YQRLQDSEDMWGDEDFTFGAYQPT,2.74
19,YQRNQDSEDMWGDEDFTFGAYQPT,2.26
20,YQRCQDSEDMWGDEDFTFGAYQPT,2.7
21,YQRRQDSEDMWGDEDFTFGAYQPT,2.26
22,YQRTQDSEDMWGDEDFTFGAYQPT,2.57
23,YQRGQDSEDMWGDEDFTFGAYQPT,2.69
24,YQRFQDSEDMWGDEDFTFGAYQPT,2.54

row,Variant,protein stability index
1,YQRSQDSEDMWGDEDFTFGAYQPT,2.54
2,YQRKQDSEDMWGDEDFTFGAYQPT,2.29
3,YQRDQDSEDMWGDEDFTFGAYQPT,3.39
4,YQRWQDSEDMWGDEDFTFGAYQPT,2.09
5,YQRPQDSEDFWGDEDFTFGAYQPT,1.86
6,YQRPQDSEDPWGDEDFTFGAYQPT,3.34
7,YQRPQDSEDVWGDEDFTFGAYQPT,2.75
8,YQRPQDSEDIWGDEDFTFGAYQPT,2.39
9,YQRPQDSEDTWGDEDFTFGAYQPT,3.73
10,YQRPQDSEDQWGDEDFTFGAYQPT,3.71
11,YQRPQDSEDKWGDEDFTFGAYQPT,3.72
12,YQRPQDSEDAWGDEDFTFGAYQPT,4.18
13,YQRPQDSEDEWGDEDFTFGAYQPT,4.53
14,YQRPQDSEDCWGDEDFTFGAYQPT,3.23
15,YQRPQDSEDNWGDEDFTFGAYQPT,4.06
16,YQRPQDSEDHWGDEDFTFGAYQPT,3.47
17,YQRPQDSEDGWGDEDFTFGAYQPT,3.96
18,YQRPQDSEDLWGDEDFTFGAYQPT,2.25
19,YQRPQDSEDDWGDEDFTFGAYQPT,4.06
20,YQRPQDSEDSWGDEDFTFGAYQPT,3.5
21,YQRPQDSEDRWGDEDFTFGAYQPT,3.66
22,NQRPQDSEDMWGDEDFTFGAYQPT,4.62
23,QQRPQDSEDMWGDEDFTFGAYQPT,4.23
24,EQRPQDSEDMWGDEDFTFGAYQPT,4.84

row,Variant,protein stability index
1,DQRPQDSEDMWGDEDFTFGAYQPT,4.87
2,TQRPQDSEDMWGDEDFTFGAYQPT,4.66
3,GQRPQDSEDMWGDEDFTFGAYQPT,4.79
4,AQRPQDSEDMWGDEDFTFGAYQPT,4.84
5,MQRPQDSEDMWGDEDFTFGAYQPT,4.6
6,CQRPQDSEDMWGDEDFTFGAYQPT,3.54
7,KQRPQDSEDMWGDEDFTFGAYQPT,4.24
8,LQRPQDSEDMWGDEDFTFGAYQPT,3.87
9,WQRPQDSEDMWGDEDFTFGAYQPT,3.93
10,PQRPQDSEDMWGDEDFTFGAYQPT,4.71
11,RQRPQDSEDMWGDEDFTFGAYQPT,3.94
12,SQRPQDSEDMWGDEDFTFGAYQPT,4.52
13,HQRPQDSEDMWGDEDFTFGAYQPT,4.76
14,VQRPQDSEDMWGDEDFTFGAYQPT,3.92
15,FQRPQDSEDMWGDEDFTFGAYQPT,2.58
16,IQRPQDSEDMWGDEDFTFGAYQPT,3.95
17,YQKPQDSEDMWGDEDFTFGAYQPT,3.64
18,YQVPQDSEDMWGDEDFTFGAYQPT,3.5
19,YQFPQDSEDMWGDEDFTFGAYQPT,3.12
20,YQDPQDSEDMWGDEDFTFGAYQPT,4.36
21,YQCPQDSEDMWGDEDFTFGAYQPT,3.12
22,YQIPQDSEDMWGDEDFTFGAYQPT,2.87
23,YQNPQDSEDMWGDEDFTFGAYQPT,3.71
24,YQSPQDSEDMWGDEDFTFGAYQPT,3.11

row,Variant,protein stability index
1,YQYPQDSEDMWGDEDFTFGAYQPT,3.09
2,YQMPQDSEDMWGDEDFTFGAYQPT,3.2
3,YQAPQDSEDMWGDEDFTFGAYQPT,3.44
4,YQGPQDSEDMWGDEDFTFGAYQPT,3.4
5,YQHPQDSEDMWGDEDFTFGAYQPT,3.49
6,YQQPQDSEDMWGDEDFTFGAYQPT,4.01
7,YQEPQDSEDMWGDEDFTFGAYQPT,4.79
8,YQLPQDSEDMWGDEDFTFGAYQPT,3.46
9,YQTPQDSEDMWGDEDFTFGAYQPT,2.62
10,YQPPQDSEDMWGDEDFTFGAYQPT,3.87
11,YQWPQDSEDMWGDEDFTFGAYQPT,2.82
12,YQRPQDSYDMWGDEDFTFGAYQPT,2.31
13,YQRPQDSVDMWGDEDFTFGAYQPT,1.7
14,YQRPQDSHDMWGDEDFTFGAYQPT,2.01
15,YQRPQDSLDMWGDEDFTFGAYQPT,2.1
16,YQRPQDSGDMWGDEDFTFGAYQPT,1.98
17,YQRPQDSWDMWGDEDFTFGAYQPT,1.58
18,YQRPQDSMDMWGDEDFTFGAYQPT,2.42
19,YQRPQDSIDMWGDEDFTFGAYQPT,1.95
20,YQRPQDSPDMWGDEDFTFGAYQPT,1.65
21,YQRPQDSQDMWGDEDFTFGAYQPT,1.81
22,YQRPQDSDDMWGDEDFTFGAYQPT,2.47
23,YQRPQDSSDMWGDEDFTFGAYQPT,2.32
24,YQRPQDSTDMWGDEDFTFGAYQPT,2.29

row,Variant,protein stability index
1,YQRPQDSRDMWGDEDFTFGAYQPT,1.58
2,YQRPQDSADMWGDEDFTFGAYQPT,1.9
3,YQRPQDSNDMWGDEDFTFGAYQPT,2
4,YQRPQDSCDMWGDEDFTFGAYQPT,1.99
5,YQRPQDSKDMWGDEDFTFGAYQPT,1.78
6,YQRPQDSFDMWGDEDFTFGAYQPT,2.13
7,YQRPQDEEDMWGDEDFTFGAYQPT,3.29
8,YQRPQDREDMWGDEDFTFGAYQPT,2.71
9,YQRPQDDEDMWGDEDFTFGAYQPT,3.68
10,YQRPQDNEDMWGDEDFTFGAYQPT,3.2
11,YQRPQDHEDMWGDEDFTFGAYQPT,2.58
12,YQRPQDIEDMWGDEDFTFGAYQPT,2.99
13,YQRPQDFEDMWGDEDFTFGAYQPT,2.41
14,YQRPQDPEDMWGDEDFTFGAYQPT,3.13
15,YQRPQDMEDMWGDEDFTFGAYQPT,2.37
16,YQRPQDCEDMWGDEDFTFGAYQPT,2.34
17,YQRPQDLEDMWGDEDFTFGAYQPT,2.87
18,YQRPQDQEDMWGDEDFTFGAYQPT,2.9
19,YQRPQDWEDMWGDEDFTFGAYQPT,1.73
20,YQRPQDKEDMWGDEDFTFGAYQPT,3.01
21,YQRPQDYEDMWGDEDFTFGAYQPT,1.74
22,YQRPQDTEDMWGDEDFTFGAYQPT,2.35
23,YQRPQDGEDMWGDEDFTFGAYQPT,2.47
24,YQRPQDVEDMWGDEDFTFGAYQPT,2.82

row,Variant,protein stability index
1,YQRPQDAEDMWGDEDFTFGAYQPT,2.68
2,YHRPQDSEDMWGDEDFTFGAYQPT,2.21
3,YKRPQDSEDMWGDEDFTFGAYQPT,3.81
4,YDRPQDSEDMWGDEDFTFGAYQPT,4.81
5,YMRPQDSEDMWGDEDFTFGAYQPT,3.56
6,YCRPQDSEDMWGDEDFTFGAYQPT,2.7
7,YERPQDSEDMWGDEDFTFGAYQPT,4.26
8,YIRPQDSEDMWGDEDFTFGAYQPT,2.08
9,YFRPQDSEDMWGDEDFTFGAYQPT,3.25
10,YGRPQDSEDMWGDEDFTFGAYQPT,3.76
11,YPRPQDSEDMWGDEDFTFGAYQPT,3.05
12,YNRPQDSEDMWGDEDFTFGAYQPT,3.14
13,YLRPQDSEDMWGDEDFTFGAYQPT,3.45
14,YARPQDSEDMWGDEDFTFGAYQPT,2.79
15,YYRPQDSEDMWGDEDFTFGAYQPT,3.65
16,YSRPQDSEDMWGDEDFTFGAYQPT,3.53
17,YTRPQDSEDMWGDEDFTFGAYQPT,3.54
18,YWRPQDSEDMWGDEDFTFGAYQPT,2.38
19,YRRPQDSEDMWGDEDFTFGAYQPT,3.83
20,YVRPQDSEDMWGDEDFTFGAYQPT,1.78
